According to US8916159B2, “Selenocysteine mediated hybrid antibody molecules” (The United States of America, as represented by the …, priority 2007, dated 2014):
Like-named read-outs stand apart in the source and are kept apart here. Non-standard residues stand in square brackets, D forms with d. Groups on a side chain read outwards from the residue. No end group written: not given here. folate‑alkyne = folate derivative bearing an alkyne group; Sec = N[C@@H](C[SeH])C(=O)O; biotin‑azide = biotin-azide

What was measured:
[1] = biological target: T1, folate receptor (Homo sapiens, UniProt P15328); assay: Flow cytometry binding to SKOV-3 cells expressing folate receptor; conditions: SKOV-3, three click reaction conditions, FIG. 17
T1 construct: endogenous in cells; host or cells: SKOV-3
Experimental: The results are depicted in the flow cytometry plot of FIG. 17.
The folate was further equipped with an alkyne group using methods described in Thomas et al., Poster MEDI-409, 238th ACS National Meeting, Washington, D.C. (Aug. 16-20, 2009). Using azide-alkyne Huisgen cycloaddition (“click chemistry”) under various reaction conditions, biotin-azide was added to the resulting Fc-Sec-His/folate-alkyne. The results of three reaction conditions are also depicted in the flow cytometry plot of FIG. 17.

[2] = biological target: T2, integrin α4 (Homo sapiens, UniProt P05556+P13612); assay: Competition with anti-integrin α4 mAb for binding to integrin α4β1-expressing lymphoma cells; conditions: PEG-SU-Lys-Lys-mal linker conjugate, FIG. 14
T2 construct: endogenous in cells
Description: Using solid-phase synthesis techniques as described in Thomas et al., Bioorg. Medicinal Chem. Letters, 18: 5785-88 (2008), the PEG-SU-Lys-Lys-mal linker was used to couple LLP2A to Fc-Sec. A biotin reporter molecule was employed as described in Example 2 to allow detection of Fc covalent adducts by avidin pull-down experiments followed by ELISA visualization. The Fc-Sec-LLP2A conjugate was then incupated with integrin α4β1-expressing cells. The cells were washed and then treated with Cy5-labeled rabbit anti-human IgG. Under these conditions, cells only fluoresced if both the Fc and LLP2A components of the hybrid construct were present.

[3] = system: Raji cells; assay: Flow cytometry binding to Raji cells; set-up: species or system Human; conditions: for fluorescence signal on Raji cells after exposure of protein to FITC maleimide derivative: FIG. 11C
Experimental: Flow cytometry assays were conducted on the resulting conjugates. Human Burkitt's lymphoma cell line Raji was purchased from ATCC. All incubations were for 1 hour on ice. […] After washing twice with 1% (v/v) FCS/PBS, the cells were incubated with a 1:25 dilution of PE-coupled streptavidin (BD Biosciences) or with FITC-coupled goat anti-human Fab polyclonal (Fab′)2 fragments (Jackson ImmunoResearch Laboratories). […] After washing twice as before, the cells were resuspended in 400 μL 1% (v/v) FCS/PBS and analyzed using a FACScan instrument (Becton-Dickinson). For the competition experiment, the cells were first incubated with the anti-CD52 monoclonal antibody CAMPATH® or Rituximab (all 0.6 μM). For detection, a 1:25 dilution of PE-coupled streptavidin (BD Biosciences) was used.

[4] = system: Raji cells; conditions: 0.6 μM; for complement-dependent cytotoxicity with rabbit complement: 10% rabbit complement 2 hours 37° C.
Experimental: To determine whether Sec-conjugation had any effect on the cytotoxic effects of Rituximab, Raji cells were centrifuged and resuspended in 1% (v/v) FCS/PBS, and aliquots of 50 μL containing 5×10^5 cells were distributed into a V-bottom 96-well plate (Corning). After incubation with Rituximab, Rituxi-Sec-His/fluorescein, or Rituxi-Fab-Sec-His/biotin (0.6 μM) for 1 hour on ice, cells were washed twice and incubated with 10% rabbit complement of 3-4 weeks old rabbits (Pel-Freez) for 2 hours at 37° C. After the addition of 100 μg/ml propidium iodide (PI), dead cells were detected by PI accumulation using a FACScan instrument (Becton-Dickinson).

[5] = Serum levels in mice after i.v. injection, flow cytometry using Raji cells; type: in vivo, C57BL/6 mice; conditions: i.v. 100 μL of 3 mg/mL, bleeds 30 min to 96 h
Experimental: The mouse study was carried out by Biocon, Inc. (Rockville, Md.) in accordance with the Guide for the Care and Use of Laboratory Animals published by the National Institutes of Health. […] Sera from retro-orbital bleeds were prepared 30 min, 24 h, 48 h, 72 h, and 96 h after injection. Sera were diluted ten-fold in 1% (v/v) FCS/PBS and analyzed by flow cytometry using Raji cells and Cy5-coupled goat anti-human F(ab′)2 polyclonal antibodies (Jackson ImmunoResearch) or PE-coupled streptavidin as described in Example 10 (FIG. 16C).

T1 sequence (P15328 25-234): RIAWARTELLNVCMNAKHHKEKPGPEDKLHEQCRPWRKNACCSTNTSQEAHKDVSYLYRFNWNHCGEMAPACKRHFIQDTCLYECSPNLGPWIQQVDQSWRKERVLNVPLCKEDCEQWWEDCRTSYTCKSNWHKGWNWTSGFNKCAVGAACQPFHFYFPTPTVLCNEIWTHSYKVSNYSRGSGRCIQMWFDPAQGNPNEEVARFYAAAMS

## Fc-Sec-His/folate-alkyne: Fc-Sec-His folate conjugate equipped with an alkyne group; biotin-azide clicked on (chain (part 1 of 2) EPKSSDKTHTCPPCP; chain (part 2 of 2) A[Sec]([folate‑alkyne-biotin‑azide])HHHHHH; not fully specified; cysteine pairing not given here; also: biotin-azide clicked on)
[1]
  folate binding after biotin-azide click onto alkyne conjugate: retained its folate binding properties

## Fc-Sec-LLP2A: LLP2A coupled to Fc-Sec using the PEG-SU-Lys-Lys-mal trifunctional linker with biotin reporter (chain (part 1 of 2) EPKSSDKTHTCPPCP; chain (part 2 of 2) Ala-X; not fully specified (some residues); cysteine pairing not given here; also: LLP2A coupled via PEG-SU-Lys-Lys-mal trifunctional linker with biotin reporter, site not given here)
[2]
  binding to lymphoma cells in the presence of anti-integrin α4 mAb: diminished binding

## Rituximab-Sec-His/fluorescein: Rituximab-Sec-His conjugated at Sec to fluorescein-5-maleimide (FITC derivative with maleimide moiety)
[3]
  fluorescence signal on Raji cells after exposure of protein to FITC maleimide derivative: clear and homogenous signal
[4]; listed as Rituxi-Sec-His/fluorescein
  complement-dependent cytotoxicity with rabbit complement: as potent as Rituximab
[4]; listed as Rituximab-Sec-His/FITC
  complement-dependent cytotoxicity with rabbit complement: equal cytotoxicity

## Rituximab-stop: Rituximab protein without inserted selenocysteine
[3]
  fluorescence signal on Raji cells after exposure of protein to FITC maleimide derivative: only basal levels

## Rituximab: commercially available CD20 antibody [reference compound]
[3]; 0.6 μM, 1 hour on ice, FIG. 11A
  binding to Raji cells: equal affinities
[4]
  complement-dependent cytotoxicity with rabbit complement: strong cytotoxic effect
[4]; no rabbit serum, FIG. 12A
  cytotoxicity of antibody alone, without rabbit serum: neither the antibody nor rabbit serum alone mediated complement-dependent cytotoxicity
[5]
  serum signal over the course of the experiment: only marginal weakening
